The subject of series [1] is MS2 coat protein. The series can be described thus: apparent KD of MS2 coat protein; higher = weaker reporter binding. To be noted: Eterna round: R101. The protocol: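 RNA-MaP: designed FMN/MS2 RNA switches (84 nt design region) are transcribed on-chip within common flanks and titrated with SNAP-549-labelled MS2 coat protein (about 1-3000 nM) in 100 mM Tris pH 7.5, 80 mM KCl, 4 mM MgCl2, without or with 200 uM FMN. Median apparent KD per design; activation ratio = KD,OFF / KD,ON.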

Series [2] has as its system MS2 coat protein. The experiment in a line: apparent KD of MS2 coat protein, switch ON state; designed switch direction (-1 OFF switch, 1 ON switch): 1; higher = weaker reporter binding. To be noted: FMN input: 0 or 200 uM; Eterna round: R93 (includes R88 designs). In a few lines:
(§1)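 Apparent KD was obtained for each design as the median of normalised binding-curve fits over its clusters. RNA switches transcribed on-chip from Illumina sequencing clusters were titrated with SNAP-549-labelled MS2 coat protein (twofold steps, 0.7 or 1.5 nM to 3 µM) in 100 mM Tris-HCl pH 7.5, 80 mM KCl, 4 mM MgCl2, without or with constant ligand.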

Series [3] has as its system MS2 coat protein. The experiment in a line: apparent KD of MS2 coat protein, switch OFF state (with FMN for OFF switches, without FMN for ON switches); designed switch direction (-1 OFF switch, 1 ON switch): 1; higher = weaker reporter binding. To be noted: FMN input: 0 or 200 uM; Eterna round: R93 (includes R88 designs). An outline of the steps: as §1

With “AAAUAACUUGAAGGAUAUCAGGGUGCACCUCAGUAAAACUGAGGUGCACCCUGAGAAGGUCGAGGAUCACCCGACCUAAAUAAA [#SharedSequence SLExNG1: 6-2] (puzzle (switch architecture): Small Loop Exclusion NG 1)”, the figures for the “apparent KD of MS2 coat protein” value with MS2 coat protein [1] (input ligand: FMN 200 uM) and in the series on MS2 coat protein [1] (input ligand: none) were 7.27 nM and 5.76 nM, respectively.
On to “AAAUAACUUGAAGGAUAUCAGGGUGCACCUCAGUAAAACUGAGGUGCACCCUGAGAAGGUCGAGGAUCACCCGACCUAGUGAAA [#SharedSequence SLExNG1: 7-2] (puzzle (switch architecture): Small Loop Exclusion NG 1)”, for which the “apparent KD of MS2 coat protein” value in the series with MS2 coat protein [1] (input ligand: FMN 200 uM) was found to be 7.19 nM; in the series with MS2 coat protein [1] (input ligand: none), 6.8 nM.
In the case of “AAAUAAUCCUUAGGAUAUGACUCCGAAACGGAGUCAGAAGGGAGGAUCACCCUCUUCAGCUCAGCGUCGAAAGACGCUGAGCAA [#SharedSequence ExNG1 - 22] (puzzle (switch architecture): Exclusion NG 1)”, the “apparent KD of MS2 coat protein” value with MS2 coat protein [1] (input ligand: FMN 200 uM) turned out to be 200 nM; in the series on MS2 coat protein [1] (input ligand: none), 72.8 nM.
“ACACGUCGUGAGAAGGAGGAUCACCCUUUCGAAAGAAAGAGCCACCGUGAAAACGGUGGCAAAUUCUAGGAUAUCACGACGUGA [#SharedSequence - IExNG2: 2] (puzzle (switch architecture): Inverted Exclusion NG 2)”: the “apparent KD of MS2 coat protein” value with MS2 coat protein [1] (input ligand: FMN 200 uM) amounted to 363 nM; in the series with MS2 coat protein [1] (input ligand: none) it was 230 nM.
Take “AGACCUGCUCAGAAGGAGAGUGCGAGGCUGGAAACAGCCUCGAACUAGAAACCUAGAGGAUCACCCUAGGAUAUGAGCAGGUCA [#SharedSequence - IExNG2: 10] (puzzle (switch architecture): Inverted Exclusion NG 2)”: the figures for the “apparent KD of MS2 coat protein” value with MS2 coat protein [1] (input ligand: FMN 200 uM) and in the series on MS2 coat protein [1] (input ligand: none) were 5.58 nM and 5.51 nM, respectively.
As to “AGGAGAAAUGUAGGAUAUGGGCGGGCGGACGGGCAAAGCGCGUCCGCCCGCCCAGAAGGACAUGAGGAUCACCCAUGUUUCCCU [Wow, my 5th design!] (puzzle (switch architecture): Small Loop Exclusion NG 1)”, the results for the “apparent KD of MS2 coat protein” value in the series with MS2 coat protein [1] (input ligand: FMN 200 uM) and with MS2 coat protein [1] (input ligand: none) were 13 nM and 12.2 nM, respectively.
“CCCGGUGACUAGAAGGCGCCACAUGAGGAUCACCCAUGUAUCAAAGACCGGUGAUUGCCGACGGGCGAGGAUAUAGGUGCGACG [EternaBot1154] (puzzle (switch architecture): Inverted Exclusion NG 2)”: in the series with MS2 coat protein [1] (input ligand: none), the “apparent KD of MS2 coat protein” value was determined as 8.19 nM.
For “CGGGAUAUGAAGGGCGAAAGCCCACAUGAGGAUCACCCAUGUAGAAGGCGGGCCGCAACGCGGCCCGAGGAUAUACAAUAUCCA [#my 7th design] (puzzle (switch architecture): Inverted Exclusion NG 3)”, the “apparent KD of MS2 coat protein” value with MS2 coat protein [1] (input ligand: FMN 200 uM) was determined as 13.1 nM; in the series with MS2 coat protein [1] (input ligand: none) it was 9.05 nM.
The matching figures for “CGUAGUCCGUAGAAGGGUGACAUGAGGAUCACCCAUGUGCGAGCGGAGGGAGUCAGCGGCUCGCCACAGGAUAUACGGAGCACG [Eniszabe] (puzzle (switch architecture): Inverted Same State NG 2)”: 28.8 nM and 137 nM.
“GACUGCAGGAUAACAACCUGCAGUCACUUCUGAGGAUCACCCAGAAGGGCUGAGGUAAUACCUCAGCAGGAUAUGGAGUGUAAA [#SharedSequence IExNG# - 8] (puzzle (switch architecture): Inverted Exclusion NG 3)”: the “apparent KD of MS2 coat protein” value came out at 70.1 nM in the series with MS2 coat protein [1] (input ligand: FMN 200 uM) and 21.9 nM in the series with MS2 coat protein [1] (input ligand: none).
Consider “GGAGAUACAUGAGGAUCACCCAUGUAGGAUAUAUAGUAUAUAUAUAUUGAAAGGUAUAUAUAUAUAUAGAAGGGCGUGCACACC [#LOL-18] (puzzle (switch architecture): Small Loop Exclusion NG 3)”, for which the “apparent KD of MS2 coat protein” value was determined as 6.73 nM in the series with MS2 coat protein [1] (input ligand: FMN 200 uM) and 9.07 nM in the series on MS2 coat protein [1] (input ligand: none).
The matching figures for “GGAGAUACAUGAGGAUCACCCAUGUAGGAUAUCGGGCCCGGGCCCGGCGAAAGCCGGGCCCGGGCCGAGAAGGGCGUACACACC [#LOL-2] (puzzle (switch architecture): Small Loop Exclusion NG 3)”: 5.79 nM and 7.3 nM.
For the sequence “GGAUAGGACAGAGGAUAUACGUGCUAGAGAUACUAGCAAAAUUUCCUCACAUGAGGAUCACCCAUGUAGAAGGCUGUCCUAUCG (puzzle (switch architecture): Exclusion NG 2)”, the entries for the “apparent KD of MS2 coat protein” value in the series on MS2 coat protein [1] (input ligand: FMN 200 uM) and in the series on MS2 coat protein [1] (input ligand: none) were 415 nM and 15.7 nM, respectively.
As to “GGUCGACUUCAAGGAUAUGGACUGCAAAGCAGUCCAGAAGGUGAGGAUCACCCAUCUACGGUCAGGAAACUGACCGAUCGACCA [#SharedSequence - ExNG1-8] (puzzle (switch architecture): Exclusion NG 1)”, the “apparent KD of MS2 coat protein” value was 117 nM in the series on MS2 coat protein [1] (input ligand: FMN 200 uM) and 86.2 nM with MS2 coat protein [1] (input ligand: none).
For the sequence “GGUGCACGCACAGGAUAUCCGGCGAAGCUCGUCGGAGAAGGGUGACAUGAGGAUCACCCAUGUACGUGCAGCCAAGUUUGAGAG [Laaar] (puzzle (switch architecture): Same State NG 1)”, the “apparent KD of MS2 coat protein” value stood at 47.6 nM in the series on MS2 coat protein [1] (input ligand: FMN 200 uM) and 26.8 nM in the series on MS2 coat protein [1] (input ligand: none).
On to “GUCACGGUUAAUUCCGUGACGCGCAAUCCUUGAGGAUCACCCAAGGAUAUCGACGUCAAUGACGUCGAGAAGGUGGUUGAGCGC [#SharedSequence2] (puzzle (switch architecture): Exclusion NG 3)”, for which the “apparent KD of MS2 coat protein” value in the series on MS2 coat protein [1] (input ligand: FMN 200 uM) came out at 23.5 nM; in the series on MS2 coat protein [1] (input ligand: none), 13.6 nM.
Turning to “GUCAGCUCGUGAGGAUAUACAACACUGCUUCGGCAGUGUAUUAAGAUCACAUGAGGAUCACCCAUGUAGAAGGCACGAGCUGAU (puzzle (switch architecture): Exclusion NG 2)”, the “apparent KD of MS2 coat protein” value was found to be 240 nM in the series with MS2 coat protein [1] (input ligand: FMN 200 uM) and 13.9 nM in the series on MS2 coat protein [1] (input ligand: none).
With “UAAAUAGAUCCUAGAGGAUCACCCUAGGAUAUCACCGUCGAGGUGCCAUAAUGGCACCUCGACGGUGAGAAGGAGGAAAAUAAA [#SharedSequence - SLExNG3: 5] (puzzle (switch architecture): Small Loop Exclusion NG 3)”, the “apparent KD of MS2 coat protein” value came out at 21.8 nM with MS2 coat protein [1] (input ligand: FMN 200 uM) and 11.5 nM in the series on MS2 coat protein [1] (input ligand: none).
On to “UAAUAUAUAUAGAAGGACAUGAGGAUCACCCAUGUCGCCGGGCCCGGGAAACCGGGCCCGGCCAUGUAGGAUAUAUAUAUAUUA [#This is a good prank 10] (puzzle (switch architecture): Inverted Exclusion NG 2)”, for which the “apparent KD of MS2 coat protein” value in the series with MS2 coat protein [1] (input ligand: FMN 200 uM) came to 5.17 nM; in the series with MS2 coat protein [1] (input ligand: none) it was 4.9 nM.
Consider “UUACUCAUGUAAGGAUAUGCAGCCGAAACGGCUGCAGAAGGUACUAUAAUACAUGAGGAUCACCCAUGUAAAAUAUAUAAAGUU (puzzle (switch architecture): Same State NG 1)”, for which the results for the “apparent KD of MS2 coat protein” value in the series on MS2 coat protein [1] (input ligand: FMN 200 uM) and in the series with MS2 coat protein [1] (input ligand: none) were 18.3 nM and 29.3 nM, respectively.
“UUGGACGUCGUAGGAUAUGUAGGAUAUUCCUACAUGAGGAUCACCCAUGUUGACAUGGAAGAAGGACAGAAGGACGAUGUCCAU (puzzle (switch architecture): Same State NG 2)”: the “apparent KD of MS2 coat protein” value in the series with MS2 coat protein [1] (input ligand: FMN 200 uM) worked out at 4.56 nM; in the series on MS2 coat protein [1] (input ligand: none), 217 nM.
In the case of “UUUAAUUAUACGAAGGAUAUCGAUAAUAAGACAUGAGGAUCACCCAUGUAAUAUUUUUCCAUAUUCGAGAAGGUCGCGGGUGAAC [JR_SS002_Sub601]”, the “apparent KD of MS2 coat protein” value was found to be 25 nM with MS2 coat protein [2] and 16.9 nM in the series on MS2 coat protein [3].

These data come from the supplement of paper PMC9170038.
